These results are taken from US20200199241A1 (Chugai, published 2020).

Holding throughout (assay): SPR, captured antibody;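 also: antibody captured on a sensor chip, Fcγ receptor flowed over at 25 °C, receptor binding normalized to the captured antibody amount and expressed relative to the reference antibody ×100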
For one assay, the target named is T1, human FcγRIa (human, UniProt P12314 16-292, limits assumed).
T1 construct: also called FcgRIa; hFcgRIa

The next assay deals with T2, human FcγRIIa(R) (human, UniProt P12318 36-217).
T2 construct: also called FcgRIIaR; hFcgRIIa(R)
T2 chain: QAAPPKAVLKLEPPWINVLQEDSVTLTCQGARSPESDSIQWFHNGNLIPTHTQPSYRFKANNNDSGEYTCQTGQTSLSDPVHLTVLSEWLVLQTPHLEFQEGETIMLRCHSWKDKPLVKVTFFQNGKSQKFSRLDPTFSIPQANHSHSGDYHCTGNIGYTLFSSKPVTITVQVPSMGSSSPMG

For a further assay, the target named is T3, human FcγRIIa(H) (human, UniProt P12318 36-217).
T3 construct: also called FcgRIIaH; hFcgRIIa(H)
T3 sequence: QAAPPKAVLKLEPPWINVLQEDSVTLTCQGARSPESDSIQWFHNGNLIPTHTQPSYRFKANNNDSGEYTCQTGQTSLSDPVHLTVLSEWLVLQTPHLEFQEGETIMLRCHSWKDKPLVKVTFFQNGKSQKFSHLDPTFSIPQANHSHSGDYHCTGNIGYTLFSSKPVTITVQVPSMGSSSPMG

For a further assay, the target named is T4, human FcγRIIb (human, UniProt P31994 43-217, limits assumed).
T4 construct: also called FcgRIIb; hFcgRIIb
T4 sequence: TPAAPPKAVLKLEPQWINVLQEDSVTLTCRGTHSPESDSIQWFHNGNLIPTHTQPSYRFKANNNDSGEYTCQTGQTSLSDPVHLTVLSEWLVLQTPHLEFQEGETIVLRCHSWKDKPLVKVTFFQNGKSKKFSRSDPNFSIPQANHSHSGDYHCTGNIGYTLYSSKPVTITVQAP

T1 sequence (P12314 16-292 limits assumed): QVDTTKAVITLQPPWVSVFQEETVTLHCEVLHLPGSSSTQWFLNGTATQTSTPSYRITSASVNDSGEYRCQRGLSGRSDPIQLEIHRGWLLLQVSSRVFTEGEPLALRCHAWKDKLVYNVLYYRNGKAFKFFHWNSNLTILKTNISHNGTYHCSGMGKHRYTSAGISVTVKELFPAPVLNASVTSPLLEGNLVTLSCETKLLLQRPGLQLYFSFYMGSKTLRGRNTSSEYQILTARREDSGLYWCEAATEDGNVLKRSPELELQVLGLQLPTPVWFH

B1: GpH7-B3 N325A/GpL16-k0 (antibody, human IgG1)
heavy: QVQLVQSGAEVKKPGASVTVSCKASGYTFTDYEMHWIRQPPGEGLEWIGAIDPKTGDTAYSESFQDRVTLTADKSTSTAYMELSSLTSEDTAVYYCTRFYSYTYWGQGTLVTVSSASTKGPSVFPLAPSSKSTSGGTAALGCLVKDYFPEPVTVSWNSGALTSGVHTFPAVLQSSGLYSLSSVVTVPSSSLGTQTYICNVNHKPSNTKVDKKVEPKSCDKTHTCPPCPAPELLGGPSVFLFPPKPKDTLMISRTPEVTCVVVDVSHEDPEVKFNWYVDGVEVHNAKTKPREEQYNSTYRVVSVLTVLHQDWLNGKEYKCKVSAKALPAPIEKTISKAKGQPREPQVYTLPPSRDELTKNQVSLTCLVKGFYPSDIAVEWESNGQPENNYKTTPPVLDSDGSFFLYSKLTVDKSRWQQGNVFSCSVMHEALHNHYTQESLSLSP
light: DIVMTQSPLSLPVTPGEPASISCQASESLVHSNRNTYLHWYLQKPGQSPQLLIYKVSNRFSGVPDRFSGSGSGTDFTLKISRVEAEDVGVYYCSQNTHVPPTFGQGTKVEIE
notes: B3 variant; copies: 2 + 2
For the molecule B1, the relative binding activity in the assay with human FcγRIa is 94 % of GpH7-B3/GpL16-k0; with human FcγRIIa(R), 38 % of GpH7-B3/GpL16-k0; with human FcγRIIa(H), 14 % of GpH7-B3/GpL16-k0; with human FcγRIIb, 27 % of GpH7-B3/GpL16-k0.

B2: GpH7-B3 P271R/GpL16-k0 (antibody, human IgG1)
heavy: not shown
light: DIVMTQSPLSLPVTPGEPASISCQASESLVHSNRNTYLHWYLQKPGQSPQLLIYKVSNRFSGVPDRFSGSGSGTDFTLKISRVEAEDVGVYYCSQNTHVPPTFGQGTKVEIE
notes: B3 variant; copies: 2 + 2
For B2, the relative binding activity in the assay with human FcγRIa is 100 % of GpH7-B3/GpL16-k0; with human FcγRIIa(R) it was 89 % of GpH7-B3/GpL16-k0; with human FcγRIIa(H), 99 % of GpH7-B3/GpL16-k0; in the assay with human FcγRIIb, 87 % of GpH7-B3/GpL16-k0.

B3: GpH7-B3 N325P/GpL16-k0 (antibody, human IgG1)
heavy: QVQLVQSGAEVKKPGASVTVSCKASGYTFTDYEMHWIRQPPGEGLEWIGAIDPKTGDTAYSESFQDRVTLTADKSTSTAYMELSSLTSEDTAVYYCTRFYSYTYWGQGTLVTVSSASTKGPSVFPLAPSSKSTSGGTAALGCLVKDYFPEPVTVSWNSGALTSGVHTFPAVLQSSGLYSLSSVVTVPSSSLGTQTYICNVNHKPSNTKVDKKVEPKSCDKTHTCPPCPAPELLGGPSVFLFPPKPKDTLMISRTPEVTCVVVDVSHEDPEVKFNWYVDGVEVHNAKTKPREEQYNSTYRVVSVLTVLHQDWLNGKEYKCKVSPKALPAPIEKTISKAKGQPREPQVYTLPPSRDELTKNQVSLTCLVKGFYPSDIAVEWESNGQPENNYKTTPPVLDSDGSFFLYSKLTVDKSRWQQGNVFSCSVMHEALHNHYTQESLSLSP
light: DIVMTQSPLSLPVTPGEPASISCQASESLVHSNRNTYLHWYLQKPGQSPQLLIYKVSNRFSGVPDRFSGSGSGTDFTLKISRVEAEDVGVYYCSQNTHVPPTFGQGTKVEIE
notes: B3 variant; copies: 2 + 2
As for B3, the relative binding activity was 50 % of GpH7-B3/GpL16-k0 in the assay with human FcγRIa, 2 % of GpH7-B3/GpL16-k0 with human FcγRIIa(R), 1 % of GpH7-B3/GpL16-k0 with human FcγRIIa(H) and 3 % of GpH7-B3/GpL16-k0 with human FcγRIIb.

B4: GpH7-B3 P271T/GpL16-k0 (antibody, human IgG1)
heavy: not shown
light: DIVMTQSPLSLPVTPGEPASISCQASESLVHSNRNTYLHWYLQKPGQSPQLLIYKVSNRFSGVPDRFSGSGSGTDFTLKISRVEAEDVGVYYCSQNTHVPPTFGQGTKVEIE
notes: B3 variant; copies: 2 + 2
As to B4, the relative binding activity is 98 % of GpH7-B3/GpL16-k0 with human FcγRIa, 73 % of GpH7-B3/GpL16-k0 in the assay with human FcγRIIa(R), 42 % of GpH7-B3/GpL16-k0 with human FcγRIIa(H) and 78 % of GpH7-B3/GpL16-k0 with human FcγRIIb.

B5: GpH7-B3 N325G/GpL16-k0 (antibody, human IgG1)
heavy: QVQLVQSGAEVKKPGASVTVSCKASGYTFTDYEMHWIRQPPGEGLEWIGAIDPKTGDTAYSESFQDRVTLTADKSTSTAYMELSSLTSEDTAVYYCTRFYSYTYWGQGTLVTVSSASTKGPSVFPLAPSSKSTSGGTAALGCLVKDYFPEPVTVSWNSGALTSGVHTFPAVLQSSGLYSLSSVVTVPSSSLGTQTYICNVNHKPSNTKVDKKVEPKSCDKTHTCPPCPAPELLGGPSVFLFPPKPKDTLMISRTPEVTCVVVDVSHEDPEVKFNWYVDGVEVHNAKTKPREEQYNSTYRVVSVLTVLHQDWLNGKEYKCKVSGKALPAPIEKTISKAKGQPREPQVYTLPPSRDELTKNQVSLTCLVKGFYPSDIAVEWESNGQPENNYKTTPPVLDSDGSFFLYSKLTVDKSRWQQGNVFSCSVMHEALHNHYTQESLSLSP
light: DIVMTQSPLSLPVTPGEPASISCQASESLVHSNRNTYLHWYLQKPGQSPQLLIYKVSNRFSGVPDRFSGSGSGTDFTLKISRVEAEDVGVYYCSQNTHVPPTFGQGTKVEIE
notes: B3 variant; copies: 2 + 2
Consider B5, for which the relative binding activity was 95 % of GpH7-B3/GpL16-k0 with human FcγRIa, 26 % of GpH7-B3/GpL16-k0 in the assay with human FcγRIIa(R), 7 % of GpH7-B3/GpL16-k0 with human FcγRIIa(H) and 22 % of GpH7-B3/GpL16-k0 with human FcγRIIb.

B6: GpH7-B3 N325F/GpL16-k0 (antibody, human IgG1)
heavy: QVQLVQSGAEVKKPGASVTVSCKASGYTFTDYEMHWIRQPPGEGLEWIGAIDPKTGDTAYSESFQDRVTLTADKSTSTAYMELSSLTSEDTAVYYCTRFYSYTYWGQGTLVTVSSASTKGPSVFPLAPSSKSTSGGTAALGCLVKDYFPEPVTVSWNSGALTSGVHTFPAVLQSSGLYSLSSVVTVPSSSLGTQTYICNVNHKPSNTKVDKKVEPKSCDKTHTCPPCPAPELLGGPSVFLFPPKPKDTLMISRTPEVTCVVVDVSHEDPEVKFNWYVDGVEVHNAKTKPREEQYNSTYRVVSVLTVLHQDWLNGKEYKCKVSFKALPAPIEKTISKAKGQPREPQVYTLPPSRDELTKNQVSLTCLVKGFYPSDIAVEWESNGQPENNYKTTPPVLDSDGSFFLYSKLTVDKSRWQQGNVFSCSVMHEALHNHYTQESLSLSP
light: DIVMTQSPLSLPVTPGEPASISCQASESLVHSNRNTYLHWYLQKPGQSPQLLIYKVSNRFSGVPDRFSGSGSGTDFTLKISRVEAEDVGVYYCSQNTHVPPTFGQGTKVEIE
notes: B3 variant; copies: 2 + 2
As for B6, the relative binding activity with human FcγRIa was 92 % of GpH7-B3/GpL16-k0; with human FcγRIIa(R), 65 % of GpH7-B3/GpL16-k0; in the assay with human FcγRIIa(H) it was 6 % of GpH7-B3/GpL16-k0; in the assay with human FcγRIIb, 72 % of GpH7-B3/GpL16-k0.

B7: GpH7-B3 N325V/GpL16-k0 (antibody, human IgG1)
heavy: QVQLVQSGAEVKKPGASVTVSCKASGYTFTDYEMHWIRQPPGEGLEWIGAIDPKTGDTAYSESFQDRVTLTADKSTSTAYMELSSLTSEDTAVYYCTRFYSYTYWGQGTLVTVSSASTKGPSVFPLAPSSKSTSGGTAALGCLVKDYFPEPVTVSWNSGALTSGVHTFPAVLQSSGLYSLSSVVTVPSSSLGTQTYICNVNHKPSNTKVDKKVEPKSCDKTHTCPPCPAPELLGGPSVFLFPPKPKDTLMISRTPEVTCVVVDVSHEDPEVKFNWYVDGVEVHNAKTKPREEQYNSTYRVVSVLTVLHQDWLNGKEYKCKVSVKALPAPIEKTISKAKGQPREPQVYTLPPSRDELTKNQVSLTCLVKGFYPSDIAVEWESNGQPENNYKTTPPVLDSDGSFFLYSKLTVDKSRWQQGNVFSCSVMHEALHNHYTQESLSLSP
light: DIVMTQSPLSLPVTPGEPASISCQASESLVHSNRNTYLHWYLQKPGQSPQLLIYKVSNRFSGVPDRFSGSGSGTDFTLKISRVEAEDVGVYYCSQNTHVPPTFGQGTKVEIE
notes: B3 variant; copies: 2 + 2
B7: the relative binding activity was 84 % of GpH7-B3/GpL16-k0 in the assay with human FcγRIa, 37 % of GpH7-B3/GpL16-k0 with human FcγRIIa(R), 9 % of GpH7-B3/GpL16-k0 with human FcγRIIa(H) and 35 % of GpH7-B3/GpL16-k0 with human FcγRIIb.

B8: GpH7-B3 P271H/GpL16-k0 (antibody, human IgG1)
heavy: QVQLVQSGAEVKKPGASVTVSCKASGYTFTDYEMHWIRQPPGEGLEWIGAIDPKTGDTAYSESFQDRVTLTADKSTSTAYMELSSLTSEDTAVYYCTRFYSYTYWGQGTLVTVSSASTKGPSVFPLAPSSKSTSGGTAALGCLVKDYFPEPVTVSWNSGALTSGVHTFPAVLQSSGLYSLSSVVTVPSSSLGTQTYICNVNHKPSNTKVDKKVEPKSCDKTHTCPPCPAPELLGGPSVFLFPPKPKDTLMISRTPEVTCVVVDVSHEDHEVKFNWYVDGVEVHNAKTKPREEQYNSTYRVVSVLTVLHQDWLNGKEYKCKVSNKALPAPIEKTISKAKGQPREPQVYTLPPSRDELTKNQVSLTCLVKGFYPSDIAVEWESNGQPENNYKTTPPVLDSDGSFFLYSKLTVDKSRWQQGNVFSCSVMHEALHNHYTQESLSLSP
light: DIVMTQSPLSLPVTPGEPASISCQASESLVHSNRNTYLHWYLQKPGQSPQLLIYKVSNRFSGVPDRFSGSGSGTDFTLKISRVEAEDVGVYYCSQNTHVPPTFGQGTKVEIE
notes: B3 variant; copies: 2 + 2
B8: the relative binding activity with human FcγRIa was 98 % of GpH7-B3/GpL16-k0; with human FcγRIIa(R) it was 58 % of GpH7-B3/GpL16-k0; with human FcγRIIa(H) it was 58 % of GpH7-B3/GpL16-k0; with human FcγRIIb, 53 % of GpH7-B3/GpL16-k0.

B9: GpH7-B3 P271S/GpL16-k0 (antibody, human IgG1)
heavy: not shown
light: DIVMTQSPLSLPVTPGEPASISCQASESLVHSNRNTYLHWYLQKPGQSPQLLIYKVSNRFSGVPDRFSGSGSGTDFTLKISRVEAEDVGVYYCSQNTHVPPTFGQGTKVEIE
notes: B3 variant; copies: 2 + 2
With B9, the relative binding activity in the assay with human FcγRIa was 99 % of GpH7-B3/GpL16-k0; with human FcγRIIa(R) it was 83 % of GpH7-B3/GpL16-k0; in the assay with human FcγRIIa(H), 67 % of GpH7-B3/GpL16-k0; with human FcγRIIb, 82 % of GpH7-B3/GpL16-k0.

B10: GpH7-B3 P271F/GpL16-k0 (antibody, human IgG1)
heavy: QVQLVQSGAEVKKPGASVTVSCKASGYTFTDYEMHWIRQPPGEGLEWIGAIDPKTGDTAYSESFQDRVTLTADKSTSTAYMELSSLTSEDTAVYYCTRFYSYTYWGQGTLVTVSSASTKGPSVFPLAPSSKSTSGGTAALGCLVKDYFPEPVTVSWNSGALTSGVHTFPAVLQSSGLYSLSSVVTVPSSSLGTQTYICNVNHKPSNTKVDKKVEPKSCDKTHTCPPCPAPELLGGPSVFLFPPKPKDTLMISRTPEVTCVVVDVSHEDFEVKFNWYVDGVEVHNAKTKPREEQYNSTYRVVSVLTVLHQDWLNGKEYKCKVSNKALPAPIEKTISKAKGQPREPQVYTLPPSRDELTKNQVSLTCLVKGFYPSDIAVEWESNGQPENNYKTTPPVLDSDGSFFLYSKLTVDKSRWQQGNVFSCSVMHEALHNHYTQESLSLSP
light: DIVMTQSPLSLPVTPGEPASISCQASESLVHSNRNTYLHWYLQKPGQSPQLLIYKVSNRFSGVPDRFSGSGSGTDFTLKISRVEAEDVGVYYCSQNTHVPPTFGQGTKVEIE
notes: B3 variant; copies: 2 + 2
For B10, the relative binding activity with human FcγRIa was 99 % of GpH7-B3/GpL16-k0; with human FcγRIIa(R) it was 49 % of GpH7-B3/GpL16-k0; with human FcγRIIa(H), 55 % of GpH7-B3/GpL16-k0; with human FcγRIIb, 38 % of GpH7-B3/GpL16-k0.

B11: GpH7-B3 N325R/GpL16-k0 (antibody, human IgG1)
heavy: not shown
light: DIVMTQSPLSLPVTPGEPASISCQASESLVHSNRNTYLHWYLQKPGQSPQLLIYKVSNRFSGVPDRFSGSGSGTDFTLKISRVEAEDVGVYYCSQNTHVPPTFGQGTKVEIE
notes: B3 variant; copies: 2 + 2
As for B11, the relative binding activity with human FcγRIa is 56 % of GpH7-B3/GpL16-k0; with human FcγRIIa(R), 0 % of GpH7-B3/GpL16-k0; in the assay with human FcγRIIa(H) it was 1 % of GpH7-B3/GpL16-k0; with human FcγRIIb, 0 % of GpH7-B3/GpL16-k0.

B12: GpH7-B3 N325W/GpL16-k0 (antibody, human IgG1)
heavy: not shown
light: DIVMTQSPLSLPVTPGEPASISCQASESLVHSNRNTYLHWYLQKPGQSPQLLIYKVSNRFSGVPDRFSGSGSGTDFTLKISRVEAEDVGVYYCSQNTHVPPTFGQGTKVEIE
notes: B3 variant; copies: 2 + 2
Regarding B12, the relative binding activity was 94 % of GpH7-B3/GpL16-k0 with human FcγRIa, 55 % of GpH7-B3/GpL16-k0 in the assay with human FcγRIIa(R), 4 % of GpH7-B3/GpL16-k0 with human FcγRIIa(H) and 48 % of GpH7-B3/GpL16-k0 with human FcγRIIb.

B13: GpH7-B3 N325T/GpL16-k0 (antibody, human IgG1)
heavy: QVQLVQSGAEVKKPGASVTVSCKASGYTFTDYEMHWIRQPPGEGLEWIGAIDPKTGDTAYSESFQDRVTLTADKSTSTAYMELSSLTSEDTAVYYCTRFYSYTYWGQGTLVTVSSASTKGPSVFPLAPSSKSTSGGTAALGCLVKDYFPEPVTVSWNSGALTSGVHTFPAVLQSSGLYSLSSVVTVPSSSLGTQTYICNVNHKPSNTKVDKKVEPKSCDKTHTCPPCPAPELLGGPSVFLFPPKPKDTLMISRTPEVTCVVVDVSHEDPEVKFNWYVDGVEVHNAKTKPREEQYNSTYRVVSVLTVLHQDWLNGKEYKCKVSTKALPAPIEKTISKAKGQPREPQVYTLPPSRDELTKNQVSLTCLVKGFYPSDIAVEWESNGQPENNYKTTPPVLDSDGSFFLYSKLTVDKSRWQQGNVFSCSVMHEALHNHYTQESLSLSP
light: DIVMTQSPLSLPVTPGEPASISCQASESLVHSNRNTYLHWYLQKPGQSPQLLIYKVSNRFSGVPDRFSGSGSGTDFTLKISRVEAEDVGVYYCSQNTHVPPTFGQGTKVEIE
notes: B3 variant; copies: 2 + 2
Regarding B13, the relative binding activity is 98 % of GpH7-B3/GpL16-k0 in the assay with human FcγRIa, 59 % of GpH7-B3/GpL16-k0 in the assay with human FcγRIIa(R), 27 % of GpH7-B3/GpL16-k0 in the assay with human FcγRIIa(H) and 49 % of GpH7-B3/GpL16-k0 with human FcγRIIb.

B14: GpH7-B3 N325H/GpL16-k0 (antibody, human IgG1)
heavy: not shown
light: DIVMTQSPLSLPVTPGEPASISCQASESLVHSNRNTYLHWYLQKPGQSPQLLIYKVSNRFSGVPDRFSGSGSGTDFTLKISRVEAEDVGVYYCSQNTHVPPTFGQGTKVEIE
notes: B3 variant; copies: 2 + 2
As for B14, the relative binding activity with human FcγRIa was 93 % of GpH7-B3/GpL16-k0; with human FcγRIIa(R), 34 % of GpH7-B3/GpL16-k0; with human FcγRIIa(H), 13 % of GpH7-B3/GpL16-k0; with human FcγRIIb, 27 % of GpH7-B3/GpL16-k0.

B15: GpH7-B3 N325K/GpL16-k0 (antibody, human IgG1)
heavy: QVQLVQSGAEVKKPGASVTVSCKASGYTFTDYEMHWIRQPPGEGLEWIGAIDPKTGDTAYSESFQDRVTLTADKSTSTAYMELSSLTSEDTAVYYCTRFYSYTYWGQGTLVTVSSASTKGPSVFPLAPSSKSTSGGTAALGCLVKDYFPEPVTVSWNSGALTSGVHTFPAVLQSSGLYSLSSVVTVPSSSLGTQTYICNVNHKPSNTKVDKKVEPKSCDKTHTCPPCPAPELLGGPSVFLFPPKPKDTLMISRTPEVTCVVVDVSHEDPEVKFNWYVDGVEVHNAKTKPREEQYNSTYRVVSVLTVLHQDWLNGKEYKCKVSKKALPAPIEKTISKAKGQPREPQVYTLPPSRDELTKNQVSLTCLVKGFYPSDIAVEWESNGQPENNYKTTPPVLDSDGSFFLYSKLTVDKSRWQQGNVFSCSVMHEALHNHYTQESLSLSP
light: DIVMTQSPLSLPVTPGEPASISCQASESLVHSNRNTYLHWYLQKPGQSPQLLIYKVSNRFSGVPDRFSGSGSGTDFTLKISRVEAEDVGVYYCSQNTHVPPTFGQGTKVEIE
notes: B3 variant; copies: 2 + 2
Regarding B15, the relative binding activity with human FcγRIa was 55 % of GpH7-B3/GpL16-k0; with human FcγRIIa(R), 0 % of GpH7-B3/GpL16-k0; in the assay with human FcγRIIa(H) it was 0 % of GpH7-B3/GpL16-k0; with human FcγRIIb it was -1 % of GpH7-B3/GpL16-k0.

B16: GpH7-B3 N325Y/GpL16-k0 (antibody, human IgG1)
heavy: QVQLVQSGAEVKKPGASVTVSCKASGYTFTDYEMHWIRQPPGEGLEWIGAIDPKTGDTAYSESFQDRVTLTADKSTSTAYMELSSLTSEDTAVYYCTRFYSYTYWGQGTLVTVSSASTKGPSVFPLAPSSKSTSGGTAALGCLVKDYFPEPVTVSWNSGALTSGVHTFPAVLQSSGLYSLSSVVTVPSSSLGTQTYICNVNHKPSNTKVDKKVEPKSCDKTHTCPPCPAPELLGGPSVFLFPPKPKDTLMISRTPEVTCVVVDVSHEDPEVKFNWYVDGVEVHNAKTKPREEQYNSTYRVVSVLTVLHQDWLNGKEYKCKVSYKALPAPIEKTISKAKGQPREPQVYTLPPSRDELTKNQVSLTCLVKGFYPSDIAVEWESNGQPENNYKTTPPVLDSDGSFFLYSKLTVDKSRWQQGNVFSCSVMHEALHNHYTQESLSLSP
light: DIVMTQSPLSLPVTPGEPASISCQASESLVHSNRNTYLHWYLQKPGQSPQLLIYKVSNRFSGVPDRFSGSGSGTDFTLKISRVEAEDVGVYYCSQNTHVPPTFGQGTKVEIE
notes: B3 variant; copies: 2 + 2
As for B16, the relative binding activity with human FcγRIa is 92 % of GpH7-B3/GpL16-k0; with human FcγRIIa(R), 42 % of GpH7-B3/GpL16-k0; with human FcγRIIa(H) it was 9 % of GpH7-B3/GpL16-k0; in the assay with human FcγRIIb, 39 % of GpH7-B3/GpL16-k0.
